Measured values reported in the supplement of paper PMC10567573.
± gives the standard deviation.

Assay: protein stability index of a GFP-peptide fusion (GPS, HEK-293T) (PSI 1-6); higher = more stable
[1] = treatment: DMSO, c terminus: a fixed tail appended
[2] = treatment: MLN4924 1 uM, 8 h, c terminus: a fixed tail appended
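Note: 24-mer peptide tiles fused after GFP, lentivirally expressed, FACS-sorted into six equal bins by GFP/DsRed ratio, decoded by Illumina sequencing, PSI is the read-weighted mean bin number.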

Sequence | protein stability index [1] | protein stability index [2] | protein stability index (treatment: DMSO, c terminus: native) | protein stability index (treatment: MLN4924 1 uM, 8 h, c terminus: native)
MGHCCCKPYNCLQCLDKTNESALV [MTUS2] | 3.28 ± 0.3 | 3.4 ± 0.34 | – | –
MKKAKEQLKIRKSNQIPTEVRSKA [FUNDC2] | 4.59 ± 0.34 | 4.76 ± 0.45 | – | –
MLSWILRINLVAAIFSAPAFPAAV [PSD2] | 3.23 ± 0.19 | 2.89 ± 0.39 | – | –
MMGLAQIYKKYALQSAAGKDAAKQ [PDS5B] | 2.8 ± 0.27 | 3.23 ± 0.1 | – | –
MNGGMSLVAFVLLNECVGTAYWAL [SLC22A15] | 3.91 ± 2 | 3.13 ± 0.38 | – | –
MNHYKKTTLEIHNTEERQKRQVTH [PTPN9] | 4.52 ± 0.06 | 4.49 ± 0.36 | – | –
MPALEGAPHTPPLPRRPRKGSSEL [RNF208] | 5.11 ± 0.27 | 5.21 ± 0.22 | – | –
MPQYILREFKVTDARDGQSRTVRQ [PTPRD] | 3.75 ± 0.18 | 4.18 ± 0.27 | – | –
MPSPTDVVLPGAVSLRYSGATAAS [ADAMTS4] | 4.16 ± 0.3 | 4.25 ± 0.32 | – | –
MPTQEVQELPIPSKLLEFLSYRI [WSB1] | – | – | 2.82 ± 0.2 | 3.05 ± 0.12
MQVLGPEDLQSIIYKLEEHEEFFP [CEP70] | 2.99 ± 0.53 | 3.41 ± 0.39 | – | –
MREMFFEDHIDDAKYCGHLYGLGS [CNOT7] | 2.68 ± 0.093 | 2.44 ± 0.28 | – | –
MRGVAEVKEPCSLPMLSVDMENKE [SAMD13] | 5.32 ± 0.18 | 5.53 ± 0.21 | – | –
MRTTNLDNRCKLFDSPSLCSSSTR [CDC25A] | 3.21 ± 0.4 | 3.18 ± 0.24 | – | –
MSALGSPVRAYDFLLKFLLVGDSD [RAB40B] | 2.42 ± 0.38 | 2.13 ± 0.32 | – | –
MSLHGASGGHERSRDRRRSSDRSR [BTBD10] | 5.05 ± 0.16 | 5.19 ± 0.22 | – | –
MSPESYLGSPQHSPSTRGSPNRSL [ATF4] | 4.64 ± 0.19 | 4.91 ± 0.3 | – | –
MSQPRTPEQALDTPGDCPPGRRDE [TMEM175] | 5.38 ± 0.17 | 5.58 ± 0.19 | – | –
MVLAPVFGYLGDRYNRKYLMCGGI [SPNS1] | 2.61 ± 0.058 | 2.5 ± 0.84 | – | –
MVRFKHRYLLCELVSDDPRCRLSL [POP5] | 2.56 ± 0.38 | 2.55 ± 0.58 | – | –
MYDLPKKEDALLYQSKGYNDDYYE [EMD] | 4.27 ± 0.15 | 4.25 ± 0.22 | – | –
MYEEEINETRRKHETRLVEVDSGR [LMNB1] | 5.04 ± 0.44 | 5.06 ± 0.099 | – | –

Sequence | protein stability index [1] | protein stability index [2] | protein stability index (treatment: DMSO, c terminus: native) | protein stability index (treatment: MLN4924 1 uM, 8 h, c terminus: native)
NAGLSHTEYQIVTDPGDVPAFLKW [SLC2A12] | 2.92 ± 0.3 | 3.1 ± 0.34 | – | –
NAMTCEGCKGFFRRSMKRKALFTC [VDR] | 2.38 ± 0.36 | 2.22 ± 0.6 | – | –
NCNWFCEGSFNGSEKETMQFLNDR [KRT33B] | 3.54 ± 0.35 | 3.61 ± 0.19 | – | –
NDFWRIEVVNRKFGNRIKVLRSRI [POMT2] | 2.19 ± 0.6 | 2.17 ± 0.48 | – | –
NEIIKKLQGDLKTLMGKLKLKNTV [SASS6] | – | 2.21 ± 0.35 | – | –
NGTMTIDWNEWRDYHLLHPVENIP [SLC25A25] | 3.18 ± 0.28 | 3.07 ± 0.19 | – | –
NHWVPACHSFNRAIHKKAKGTEAE [FBXO34] | 4 ± 0.17 | 4.1 ± 0.12 | – | –
NIADIEEKRGFTSHFVFVIEVKTK [NCF4] | 2.47 ± 0.74 | 2.62 ± 0.44 | – | –
NKILVPLVLLRQMLLELTRRGQEP [BCL2L13] | 2.64 ± 1.6 | 2.92 ± 0.92 | – | –
NLEKTIFCLQKLISLHPFNPWNWG [C8orf76] | 2.53 ± 0.77 | 2.59 ± 0.5 | – | –
NLQPPASLQTGNHSNGPTDLSMKG [NOL4L] | 4.66 ± 0.25 | 4.61 ± 0.21 | – | –
NLRATDVRLMRQLLVINESIESIK [LURAP1L] | 2.41 ± 0.16 | 2.58 ± 0.35 | – | –
NMKNGANDVKHHRWFRSVDWEAVP [PRKX] | 2.95 ± 0.33 | 3.08 ± 0.33 | – | –
NPSQKTGQALLTHLYQSSARRYAG [ELAVL3] | 3.58 ± 0.23 | 3.4 ± 0.36 | – | –
NQYLYFLFAPTLIYRDSYPRNPTV [SOAT1] | 3.26 ± 0.69 | 2.57 ± 0.62 | – | –
NRRSSRETREYAPPSRGHGYRDYG [RBMY1A1] | 4.27 ± 0.24 | 4.09 ± 0.23 | – | –
NSFGLRFGKREAAPGNHGRSAGRG [KISS1] | 4.44 ± 0.4 | 4.4 ± 0.46 | – | –
NTLRSQLGDRLNVEVDTAPTVDLN [KRT34] | 4.84 ± 0.18 | 4.84 ± 0.15 | – | –
NTTCVGRYPVCKFPSLQVTAILIE [FEM1C] | 2.67 ± 0.48 | 2.23 ± 0.21 | – | –
NTVKVQVLYPDGQAQMIHPKPADF [INTS4] | 3.05 ± 0.48 | 3.08 ± 0.27 | – | –
NYLIFSQKPEFQDLSVEERSFVEK [RHOBTB3] | 3.61 ± 0.16 | 3.69 ± 0.27 | – | –
NYSQDAADACDIDEIEEVPTTSHR [NETO1] | 5.55 ± 0.18 | 5.49 ± 0.17 | – | –

Sequence | protein stability index [1] | protein stability index [2] | protein stability index (treatment: DMSO, c terminus: native) | protein stability index (treatment: MLN4924 1 uM, 8 h, c terminus: native)
PAADPPRYTFAPSVSLNKTARPFG [PDLIM7] | 3.54 ± 0.27 | 3.64 ± 0.35 | – | –
PADFSLGSLPGPGQTSGAREPPQA [VENTX] | 5.12 ± 0.2 | 5.16 ± 0.24 | – | –
PAGTPPPTARHFQEHPRQQLATSS [MOSPD3] | 4.74 ± 0.27 | 4.83 ± 0.17 | – | –
PALLEATGGAAGAGGAGRGEDEEN [KCTD13] | 5.62 ± 0.24 | 5.64 ± 0.24 | – | –
PCYDVRYAPSCAKCKKKITGEIMH [PDLIM7] | 3.04 ± 0.39 | 2.97 ± 0.38 | – | –
PDEAARARLLQEGGGGVAAVVVLD [DUSP5] | 4.3 ± 0.46 | 4.57 ± 0.13 | – | –
PDSMFLAMLAVVSCASIGSGEPPT [CDK11A] | 2.74 ± 0.15 | 3.222 ± 0.003 | – | –
PDTMEKLRTHIDAIILALPEDLQG [DENND6A] | 3.02 ± 0.5 | 3.02 ± 0.23 | – | –
PEEKIWEELSVLEVFEGREDSIFG [MAGEA6] | 4.23 ± 0.29 | 4.17 ± 0.39 | – | –
PEWDTVTPEAKDLINKMLTINPSK [CAMK2A] | 4.886 ± 0.036 | 5.03 ± 0.12 | – | –
PFDMDSCLSRHSINPYSNRESRIL [DFFB] | 3.24 ± 0.29 | 3.22 ± 0.29 | – | –
PFIVFGATGLTSGLLSLLLPETLN [SLC22A15] | 3.19 ± 0.49 | 3.14 ± 0.42 | – | –
PGEFSDASMSPDATKPSHWCSVAY [SMAD6] | 3.07 ± 0.14 | 3.14 ± 0.19 | – | –
PGHGGIMDRFDCQYLMATFVHVYI [CDS1] | 3.26 ± 0.46 | 3.1 ± 0.3 | – | –
PGHIGPPGPTGPKGISGHPGEKGE [EMID1] | 5.59 ± 0.17 | 5.07 ± 0.35 | – | –
PGPVCQPPVSQSRSLFSSVPSKPP [ANKRD40] | 4.34 ± 0.39 | 4.54 ± 0.48 | – | –
PISAIRHEGKTDSERTDTAADGET [EPB41L3] | 5.71 ± 0.19 | 5.74 ± 0.078 | – | –
PKGRFERKRNPSRKKQHICDECGK [ZNF24] | 3.82 ± 0.49 | – | – | –
PKVSDQALVSAHSEWQRKLEAAEA [DMRTC1] | 4.54 ± 0.23 | 4.66 ± 0.29 | – | –
PLLKMDLNSEQAEQLERINDALSC [FAM98B] | 4.29 ± 0.24 | 4.36 ± 0.1 | – | –
PLLSNTFTETNNHWPQGPTGPPGP [EMID1] | 3.53 ± 0.33 | 4.08 ± 0.14 | – | –
